Read-outs that look alike come from different tables or passages of the source.

Test [1] addresses human NKG2A/CD94 on cells (CHOK1-hNKG2A/CD94) (human, UniProt P26715 1-233; Q13241 1-179). Description: cell-based or functional assay.
Test [2] concerns the target T1, human NKG2C/CD94 on cells (CHOK1-hNKG2C/CD94) (human, UniProt P26717 1-231; Q13241 1-179).
T1 construct: whole, on cells; also called human NKG2C overexpressing cells; human NKG2C overexpressing cell line
Description: FACS on CHOK1-hNKG2C/CD94 cells. As for the experimental part: Human NKG2A overexpressing cells (CHOK1-hNKG2A/CD94), cyno NKG2A overexpressing cells (CHOK1-cynoNKG2A/CD94), and human NKG2C overexpressing cells (CHOK1-hNKG2C/CD94) were digested with TrypLE (purchased from Gibco). Cells were collected by centrifugation, then resuspended to 2E6/mL with FACS buffer (PBS+2% FBS). The cells were added to a 96-well cell plate at 100 μL per well, and the supernatant was discarded after centrifugation. The antibody was gradiently diluted with FACS buffer (initial concentration of 200 nM, 5-fold dilution, including point 0, a total of 10 concentration points), added to the cells at 100 μL/well, mixed, and incubated at 4° C. for 1 hour. The incubated cells were centrifuged at 300 g for 5 min and washed twice with FACS buffer. Secondary antibody, anti-human IgG fluorescent secondary antibody 488 (purchased from Thermofisher A-11013), was added, incubated at 4° C. for one hour, then the cells were washed twice with FACS buffer, resuspended in PBS and analyzed by FACS instrument.

The target of test [3] is human NKG2A/CD94 on cells (CHOK1-hNKG2A/CD94) (human) (UniProt P26715). Description: cell-based or functional assay.
For test [4] the target is unchanged. Nature of the test: FACS on human NKG2A overexpressing cell line.
For test [5] the target is unchanged. Description: cell-based or functional assay. The source holds these as a separate data set.

human NKG2A/CD94 on cells (CHOK1-hNKG2A/CD94) (human), sequence (P26715 whole entry, chain 1 of 2): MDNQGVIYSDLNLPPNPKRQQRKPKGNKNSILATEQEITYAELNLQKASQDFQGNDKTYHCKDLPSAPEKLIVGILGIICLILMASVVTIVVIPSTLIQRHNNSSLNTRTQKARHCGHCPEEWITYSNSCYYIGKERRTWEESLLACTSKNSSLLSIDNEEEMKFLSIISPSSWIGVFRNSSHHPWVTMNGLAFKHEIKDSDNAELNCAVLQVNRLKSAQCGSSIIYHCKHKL
human NKG2A/CD94 on cells (CHOK1-hNKG2A/CD94) (human), sequence (Q13241 whole entry, chain 2 of 2, further chain): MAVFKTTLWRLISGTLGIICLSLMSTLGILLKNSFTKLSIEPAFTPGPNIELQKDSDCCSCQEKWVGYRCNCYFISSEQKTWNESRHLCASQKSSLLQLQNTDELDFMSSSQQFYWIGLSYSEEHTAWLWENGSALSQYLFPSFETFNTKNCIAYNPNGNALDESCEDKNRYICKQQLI
human NKG2A/CD94 on cells (CHOK1-hNKG2A/CD94), sequence (P26715 whole entry, chain 1 of 2): as the sequence (P26715 whole entry, chain 1 of 2) above
human NKG2A/CD94 on cells (CHOK1-hNKG2A/CD94), sequence (Q13241 whole entry, chain 2 of 2): as the sequence (Q13241 whole entry, chain 2 of 2, further chain) above
T1 sequence (P26717 whole entry, chain 1 of 2): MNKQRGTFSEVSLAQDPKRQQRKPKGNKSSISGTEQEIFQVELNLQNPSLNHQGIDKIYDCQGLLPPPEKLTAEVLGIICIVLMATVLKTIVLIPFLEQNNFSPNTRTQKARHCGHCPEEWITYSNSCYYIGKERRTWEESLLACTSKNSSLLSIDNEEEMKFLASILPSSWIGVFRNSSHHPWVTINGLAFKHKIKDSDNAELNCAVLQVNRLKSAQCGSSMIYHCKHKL
T1 sequence (Q13241 whole entry, chain 2 of 2): as the sequence (Q13241 whole entry, chain 2 of 2, further chain) above

B1: hu-43VH-13/VL-11 (antibody, human IgG4 S228P, kappa, V domains shown)
VH: QVQLVQSGAEVKKPGASVKVSCKASGFNIQNTYIHWVRQAPGQGLEWIGRIDPASGSTEYAPKFQGRATITADTSTNTGYMELSSLRSEDTAVYYCARYGNFLYYYSMDYWGQGTLVTVSS
VL: DIVMTQSPLSLPVTPGEPASISCRSNKSLLHSNGNTYLYWFLQKPGQSPQLLIYRMSNLASGVPDRFSGSGSGTDFTLKISRVEAEDVGVYYCMQHLENPYTFGQGTKLEIKR
Take B1: the “IC50 (nM), killing of LCL721.221 target cells by NK92 cells” value (“IC50 (nM), killing” for short) in test [1] worked out at 0.37 nM.

B2: hu-43VH-11/VL-31 (antibody, human IgG4 S228P, kappa, V domains shown)
VH: QVQLVQSGAEVKKPGASVKVSCKASGFNIQNTYIHWVRQAPGQGLEWMGRIDPASGSTEYAPKFQGRVTMTADTSTNTGYMELSSLRSEDTAVYYCARYGNFLYYYSMDYWGQGTLVTVSS
VL: DIVMTQTPLSLSVTPGQPASISCRSNKSLLHSNGNTYLYWFLQKPGQPPQLLIYRMSNLASGVPDRFSGSGSGTDFTLKISRVEAEDVGVYYCMQHLENPYTFGQGTKLEIRT
In the case of B2, in test [1], the “IC50 (nM), killing” value turned out to be 0.45 nM.

B3: hu-43VH-21/VL-11 (antibody, human IgG4 S228P, kappa, V domains shown)
VH: QVQLVQSGAEVKKPGASVKVSCKASGFNIQNTYIHWVRQAPGQGLEWMGRIDPASGSTEYAPKFQGRVTMTADTSINTGYMELSRLRSDDTAVYYCARYGNFLYYYSMDYWGQGTLVTVSS
VL: DIVMTQSPLSLPVTPGEPASISCRSNKSLLHSNGNTYLYWFLQKPGQSPQLLIYRMSNLASGVPDRFSGSGSGTDFTLKISRVEAEDVGVYYCMQHLENPYTFGQGTKLEIKR
B3: the “IC50 (nM), killing” value in test [1] stood at 0.52 nM.

B4: hu-43VH-11/VL-21 (antibody, human IgG4 S228P, kappa, V domains shown)
VH: QVQLVQSGAEVKKPGASVKVSCKASGFNIQNTYIHWVRQAPGQGLEWMGRIDPASGSTEYAPKFQGRVTMTADTSTNTGYMELSSLRSEDTAVYYCARYGNFLYYYSMDYWGQGTLVTVSS
VL: DIVMTQSPLSLPVTLGQPASISCRSNKSLLHSNGNTYLYWFQQRPGQSPRLLIYRMSNLASGVPDRFSGSGSGTDFTLKISRVEAEDVGVYYCMQHLENPYTFGQGTKLEIKR
For B4, the “IC50 (nM), killing” value in test [1] stood at 0.33 nM.

B5: cAb-43 (antibody, human IgG4 S228P, kappa, V domains shown)
VH: EVQLQQSVAELVRPGASVKLSCTASGFNIQNTYIHWVKQRPEQGLEWIGRIDPASGSTEYAPKFQGKATITADTSSNSGYLQLSSLTSEDTAIYYCARYGNFLYYYSMDYWGQGTSVTVSA
VL: DIVMTQAAPSVPVTPGESVSISCRSNKSLLHSNGNTYLYWFLQRPGQSPQLLIYRMSNLASGVPDRFSGSGSGTAFTLRISRVEAEDVGVYYCMQHLENPYTFGGGTKLEIKR
notes: human-mouse chimeric antibody, human IgG4 constant region; also called antibody number 43; NKG2A chimeric antibody
With B5, in test [2], the binding result is listed as “no binding (tested: initial concentration of 200 nM)”. In addition, the “IC50 (nM), killing” value in test [1] came to 0.28 nM.

B6: NKG2A positive control antibody Z270 (Monalizumab) (antibody, INN chains, looked up, V domains shown)
VH: QVQLVQSGAEVKKPGASVKVSCKASGYTFTSYWMNWVRQAPGQGLEWMGRIDPYDSETHYAQKLQGRVTMTTDTSTSTAYMELRSLRSDDTAVYYCARGGYDFDVGTLYWFFDVWGQGTTVTVSS
VL: DIQMTQSPSSLSASVGDRVTITCRASENIYSYLAWYQQKPGKAPKLLIYNAKTLAEGVPSRFSGSGSGTDFTLTISSLQPEDFATYYCQHHYGTPRTFGGGTKVEIK
For the molecule B6, the IC50 (nM), killing of LCL721.221 target cells by NK92 cells in test [3] was determined as 1.11 nM; in test [5], 0.57 nM. This molecule showed a Maximum MFI in test [4] of 16100 MFI.
